{"source": "paper PMC4977486", "about": "“A/T Run Geometry of B-form DNA Is Independent of Bound Methyl-CpG Binding Domain, Cytosine Methylation and Flanking Sequence”", "key": {"MeCP2 MBD wild type": {"target": "MeCP2 MBD wild type (UniProt P51608 78-163)", "assay": "EMSA; 2, 4, 8 uM protein; 1.8 uM DNA; 1.8 uM poly(dG-dC) competitor; reference; EMSA: 100 mM Tris-HCl pH 7.5, 500 mM KCl, 10 mM DTT, 1.8 uM poly(dG-dC), room temperature 30 min; 8% native PAGE in Tris-glycine pH 8.3 at 277 K", "details": "protein: recombinant; 5' overhang 1 nt on each strand (T and A), 19 bp"}, "MeCP2 MBD-TRD wild type": {"target": "MeCP2 MBD-TRD wild type (UniProt P51608 78-310)", "assay": "EMSA; 2, 4, 8 uM protein; 1.8 uM DNA; 1.8 uM poly(dG-dC) competitor; reference; EMSA: 100 mM Tris-HCl pH 7.5, 500 mM KCl, 10 mM DTT, 1.8 uM poly(dG-dC), room temperature 30 min; 8% native PAGE in Tris-glycine pH 8.3 at 277 K", "details": "protein: recombinant; 5' overhang 1 nt on each strand (T and A), 19 bp"}}}
{"binder": "methylated BDNFProIII 20-mer (dsDNA, 5-methylcytosine at position 8 of strand 1 and position 13 of strand 2 (C33 in duplex numbering)) DNA 1: TCTGGAACGGAATTCTTCTA DNA 2: ATAGAAGAATTCCGTTCCAG", "values": [{"measurement": "binding signal", "setting": "MeCP2 MBD wild type", "result": "100 % of wild-type MBD complex"}, {"measurement": "binding signal", "setting": "MeCP2 MBD-TRD wild type", "result": "100 % of wild-type MBD-TRD complex"}]}
